± gives the standard deviation of the averaged measurements.
Tested on: Saccharomyces cerevisiae
Assay: protein stability index of tFT-peptide fusion (C-terminal peptide) (PSI (0-1 scale)); higher = more stable (slower turnover)
Settings: genetic background: wild type; temperature: 30 C
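Note: PSI is a weighted mean of sequencing reads over stability bins, variants kept only with over 10 reads, mCherry proximal and sfGFP distal, peptide attached via GGGS linker.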

Sequence	protein stability index
TYRLPLLAPAPR	0.688 ± 0.0097
PLSPLPPPPPPP	0.649 ± 0.04
APILFRICVRRL	0.541 ± 0.046
RDTFLKMLDERN	0.732 ± 0.042
GLSHPPNFLPSG	0.6505 ± 0.00088
PDEFIAKRWNST	0.62 ± 0.012
WGGGGLVVFGWK	0.698 ± 0.011
HNIQHKIHTKSR	0.761 ± 0.039
LLGLWSFLIPPS	0.677 ± 0.0023
PPPHPKPPPAGH	0.62 ± 0.069
ARIRDSPVIKTV	0.672 ± 0.019
KTIQDNNYDGIW	0.766 ± 0.25
RCIAAEFFRVHP	0.685 ± 0.019
AKKKKKTKRRKK	0.692 ± 0.07
KKKRKKKQKIRK	0.731 ± 0.08
GFRLCVFGSSLF	0.6956 ± 0.0025
GGYSNRNVEVIV	0.6323 ± 0.003
QREKGEKERTET	0.6783 ± 0.004
LPRPPPPPPPPP	0.759 ± 0.042
TPSPLAILSSTC	0.6888 ± 0.0047
IICDIFYCSTVS	0.644 ± 0.01
TFFFLGSVFSLA	0.638 ± 0.043
GDRAKTKQRESN	0.671 ± 0.01
WVPLGPFCLPLF	0.724 ± 0.1
SFLSPPSPPHSP	0.639 ± 0.01
AEPSERSRNSPP	0.68 ± 0.019

Sequence	protein stability index
PRIGPAPLPRLS	0.714 ± 0.043
SGGSALGCGRAA	0.658 ± 0.063
RGGLRRGSGREG	0.684 ± 0.068
RVETYQKMTSRL	0.757 ± 0.0092
KVCESRQVEYFR	0.634 ± 0.088
RRREGTVPWYIS	0.605 ± 0.057
GEEGQRGRGWRS	0.733 ± 0.039
LPSRSLPSPGPP	0.714 ± 0.027
VGCWATGVGGPS	0.706 ± 0.038
TNTRKIINMEKQ	0.717 ± 0.077
PVRFGNCPSILS	0.7725 ± 0.0012
GEGNAIGQVVRN	0.681 ± 0.021
KIRDECFQPVNR	0.674 ± 0.059
APPPPPSPRRPL	0.708 ± 0.013
QSKIKNKNIKIK	0.671 ± 0.017
ILCLAPLSCYPV	0.832 ± 0.055
RLPGLTHFLPKI	0.654 ± 0.038
TTPKLQPAPAVP	0.691 ± 0.059
SPSLPPLSPPNP	0.699 ± 0.039
LSLSPLHRSSFR	0.6954 ± 0.0056
PYSFDTNFVLIS	0.643 ± 0.1
EPPGWGRGTAQG	0.623 ± 0.07
AVTSLGGGIILN	0.659 ± 0.045
PLASPRIYAQHL	0.697 ± 0.016
PLLPPPPPPPPT	0.718 ± 0.025
GYKLLIEGNWEV	0.756 ± 0.025

Sequence	protein stability index
TGSLLWGCFALL	0.623 ± 0.054
MGCDGSMAPRSL	0.6608 ± 0.0029
SPPALPRPPRRP	0.708 ± 0.044
RKRWQWGRVRGV	0.617 ± 0.11
PRVLPFPSFLFF	0.657 ± 0.022
PPPPPLLPSPSP	0.696 ± 0.05
GVVGGVGGFFGC	0.754 ± 0.0013
RAPPKTTPHPAE	0.693 ± 0.052
TCAPTRISRTPG	0.6883 ± 0.00073
DTSNRRFAYRRS	0.533 ± 0.12
VISKIAIKAKER	0.665 ± 0.047
VVALHYNYFSRL	0.613 ± 0.09
RIYDNKNTGIYH	0.707 ± 0.022
KKKKNNKKKQRT	0.731 ± 0.027
NAVSFVKGRLVY	0.657 ± 0.028
GSRSPPPLRPPP	0.6755 ± 0.0012
PFSIPPPPPRYP	0.766 ± 0.0092
LPPLLPPFHPPR	0.701 ± 0.06
PPHPRTPPATPP	0.601 ± 0.12
DLRGDYCAGARV	0.685 ± 0.028
SYMCRCALDCFL	0.643 ± 0.035
PLPAPPPPTLPD	0.715 ± 0.065
LPPCAPPLPPSS	0.706 ± 0.067
GGRRKKRVTPGE	0.656 ± 0.0097
IKPVETEKRECK	0.668 ± 0.094
KDRRNKNKRQEY	0.633 ± 0.012

Sequence	protein stability index
ARLAYESSPLPR	0.7185 ± 0.0056
FSSSPGRSFRTV	0.726 ± 0.0091
VGAWGCGMWVVG	0.645 ± 0.024
IYSFFHHRFVTV	0.546 ± 0.0081
LPLGSTVVSGES	0.632 ± 0.034
RGYLAKELGVKS	0.652 ± 0.02
KKDTTRGENYKP	0.767 ± 0.016
PPLYFFSPMAFF	0.783 ± 0.032
PLLPATFLPATP	0.74 ± 0.021
LSPLSHPPSPAP	0.6806 ± 0.0014
PVSPCSQRGIFV	0.692 ± 0.01
HPTSNQATGRAN	0.692 ± 0.077
VRRGGGVGGYGI	0.734 ± 0.084
CRAGSVGGIRGR	0.693 ± 0.015
GEPSYLEYSNLV	0.765 ± 0.042
PLPAAPPILFSL	0.731 ± 0.038
FVGDPRRLSLPI	0.761 ± 0.14
ALGVHGKFEWIK	0.668 ± 0.066
RKKREKNKKRKE	0.695 ± 0.049
SPSQRPLPSISP	0.718 ± 0.01
DSGLVSRNLFLH	0.645 ± 0.18
SPLVSSPPPALL	0.643 ± 0.081
APPPVFLPPPPP	0.778 ± 0.039
LSHMRVSLTRPR	0.707 ± 0.029
PFLSPPPPSTPP	0.704 ± 0.01
YVFFPNGGLRLG	0.564 ± 0.022

Sequence	protein stability index
PPPPPLRPPRSP	0.767 ± 0.013
GLSIVGAALHSA	0.663 ± 0.025
PLLSPPSPPPPT	0.713 ± 0.017
VPVITLGSRISG	0.658 ± 0.0088
ISGRRPWGFGGE	0.642 ± 0.041
PPRTHRPPTPPQ	0.7212 ± 0.0063
MVVGWGGVEPVG	0.758 ± 0.048
SGGPDCLSMSGL	0.694 ± 0.025
RGSQLFWSRGYL	0.707 ± 0.035
ALPYPPRFPHCS	0.645 ± 0.019
PPAPPPPLPPPP	0.64 ± 0.017
LTLPPACFPRLR	0.723 ± 0.059
RRMVRLDACASV	0.659 ± 0.041
KRYSVPLTTVVD	0.7165 ± 0.0035
PPATTPICSTPS	0.681 ± 0.017
RGKIKKTRKDNK	0.598 ± 0.021
FWGPVWNVSWGV	0.695 ± 0.019
SLPSLLFLISLP	0.543 ± 0.054
FPAMVRVDTCGV	0.673 ± 0.059
PLSFPTFVPLPI	0.663 ± 0.043
LAYCGSTYVSRH	0.699 ± 0.022
VELSVVHMGHTA	0.722 ± 0.0073
MGAVGGLCGMWA	0.711 ± 0.029
HLKPTPPLPPNT	0.67 ± 0.017
CCISCSVCKDGS	0.6183 ± 0.00094
LRFDGKASHSST	0.6813 ± 0.0014

Sequence	protein stability index
PVSNVFDLTGMT	0.683 ± 0.021
DLSCVPSVNLGM	0.682 ± 0.075
AVWNWEEVWLSG	0.654 ± 0.023
TRPSPHRPSAST	0.678 ± 0.054
REDAKLGYGKKK	0.637 ± 0.061
VEVGAWMVGCSE	0.6113 ± 0.0012
DCVFLPCPRFFL	0.707 ± 0.03
PPPVPPPWPSPF	0.661 ± 0.047
LTLGAIRLLLRC	0.496 ± 0.037
PAPGLTPAGRAP	0.777 ± 0.14
TTGGRGARVGGR	0.755 ± 0.08
GGKKRGVRMCGG	0.655 ± 0.013
LIENVGDLETSR	0.665 ± 0.059
VGGAAVVAGGGV	0.695 ± 0.031
MGMSAGCGGWSG	0.6867 ± 0.0055
GLQFYPFLSVVR	0.617 ± 0.013
SLFMRLPLQSSF	0.65 ± 0.041
HPSGLFSFVCLS	0.567 ± 0.0057
VLDFRGELGLLG	0.699 ± 0.025
GMADVCRVGSRG	0.674 ± 0.033
CWRDTSSPSVLD	0.682 ± 0.041
PISPLPPPRFLP	0.677 ± 0.04
RTLHKKRLLAHR	0.693 ± 0.041
PLPPPPPALPLP	0.683 ± 0.037
LLRPPARPPHPR	0.746 ± 0.008
LQPRLLSIVPYN	0.635 ± 0.03

Sequence	protein stability index
PHPLLPGRSSPP	0.677 ± 0.061
VCLCFWSVGSWG	0.543 ± 0.011
KTHKKKKKNKNF	0.525 ± 0.012
GLVGLSLSSCGR	0.653 ± 0.088
IFKSGLPLRVGL	0.657 ± 0.028
SSHYSSPAALPY	0.696 ± 0.019
RAFDGYNSVDML	0.663 ± 0.023
APTPPPRISAWL	0.687 ± 0.019
RPAPASAFPHSP	0.69 ± 0.045
SMVLRTIKKRNI	0.661 ± 0.015
SSGPPRLPHSRR	0.646 ± 0.046
TNSVGCRIGGKQ	0.646 ± 0.02
TSQHLQNHYKKI	0.701 ± 0.0035
GGGAAGILWGLG	0.694 ± 0.013
SMLLFFLPSSSS	0.641 ± 0.046
TSLALAFTFAIP	0.703 ± 0.051
VMAVARIEVKMR	0.587 ± 0.024
LPHLFPSTPPAS	0.723 ± 0.025
KERKHKRTRQQT	0.666 ± 0.021
YINVEPRITKNT	0.709 ± 0.0085
SYRPPYTQPTDL	0.658 ± 0.064
VHIVTLGGVLSF	0.608 ± 0.0074
GYVHPSWLWANT	0.732 ± 0.033
GGWTFGSPPYEI	0.693 ± 0.015
GTLWPLPCRPDG	0.5607 ± 0.0021
RRLFGLGWDVKI	0.7177 ± 0.0034

Sequence	protein stability index
VSAPLGRFSGLV	0.685 ± 0.036
LLEGSFFCGNSS	0.726 ± 0.037
WVGAVVGAGGRW	0.614 ± 0.089
SHLGTITPSSLL	0.662 ± 0.082
KKKKKKKKKKPK	0.611 ± 0.022
SLPAFLPAPPLF	0.6962 ± 0.002
PQPPLYPPPSLP	0.675 ± 0.036
TARQNRARPGHP	0.678 ± 0.022
VRARSTSCGIWC	0.692 ± 0.045
SAPFGFLFFARL	0.815 ± 0.083
SRFPPDTFFSFL	0.802 ± 0.14
VRWTVAWAVGAT	0.689 ± 0.12
CCVKRARVPHFV	0.6159 ± 0.0014
SVEKYDGGKGVV	0.69 ± 0.0095
LRPPLRPRPIPL	0.6983 ± 0.0036
HHAKWAHGTPAQ	0.681 ± 0.022
PSSRRRLLPPPH	0.71 ± 0.12
WRSGRGRCAVSQ	0.721 ± 0.045
CCGDAVVGPRVV	0.711 ± 0.041
DLYQRPPLPKFS	0.688 ± 0.036

— the supplement of paper PMC10724198
